Experimental data reported in the RNAGym collection of RNA variant scans (doi:10.1073/pnas.2313332121).
This sample holds only a part of the variants without activity.

B1: TPR 5TU (parent)
chain: GGAUCUUCUCGAUCUAACAAAAAAGACAAAUCUGCCACAAAGCUUGAGAGCAUCUUCGGAUGCAGAGGCGGCAGCCUUCGGUGGCGCGAUAGCGCCAACGUUCUCAACUAUGACACGCAAAACGCGUGCUCCGUUGAAUGGAGUUUAUCAUG

Variants of: B1
Experiment: polymerase ribozyme fitness, log enrichment relative to wild type (log ratio); higher = more active; in vitro selection for triplet polymerase activity
Procedure, shortened: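 After PCR construction and transcription, each subunit's mutant library from a heterodimeric triplet polymerase ribozyme was annealed with a biotinylated primer, the partner subunit and triplets. Incubation was frozen, at −7 °C, and extended constructs were gel-excised, bound to streptavidin beads and amplified by RT-PCR, in one selection round done in triplicate. Fitness is the logarithm of a genotype's enrichment divided by that of the wild type, from inverse-variance-weighted replicate averages of Illumina-sequenced inputs and outputs. The base of the logarithm is 2, and genotypes needed ≥10 input reads and ≥1 read per output.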

Variant	polymerase ribozyme fitness (log ratio)
G50A G59A C96U A122U A142G A147U	-3.67
G50A G59U G71U A73C C95A C108G	≤ -4.2
A49U U82G	-0.129
G50C C51G A52U C76U G84U C105U C114U G133A	≤ -4.2
G50C A122C G143A	-4.06
G50C A52C C54U G88A C96G	≤ -4.2
G50C C57U G59C C99G	≤ -4.2
G50A G58C C99A	≤ -4.2
G50A A91G C99U C103G	≤ -4.2
A49G A122U G124U	-0.811
G50C C63U U82C A115U U146A	-1.83
A49G G50A G140U	-3.96
A49C G68C G94U A97U C114G G126A U127G	≤ -4.2
A49C G86U C96G C123U U146G	≤ -4.2
G50A G83C C93G A97C C132G A137G G140U	≤ -4.2
A49G A52C C95U C96A C99A	≤ -4.2
G50C C51U C87U G152U	≤ -4.2
G50A A60C G86A	-3.81
G50C A52G C57U C93A	≤ -4.2
G50A G86A	-3.01
G50A G86U	-3.78
A49C G62A G94C A122U C132G A142C	≤ -4.2
G50A U78G	-4.06
G50A G86A C132U G143C C149G	≤ -4.2

Variant	polymerase ribozyme fitness (log ratio)
A49C U53A C54A C87U U102C	≤ -4.2
G50A C76U C96A A121G	-1.1
A49G G84A	-0.52
A49C G68A C96U A98C C108G	≤ -4.2
A49U G86A C87G A106C G136U A150C	≤ -4.2
G50A A91U G100U C125A	≤ -4.2
A49U A107C	≤ -4.2
G50C C51A	-0.896
G50A A60C G62A C76U C96U G100U C108G	≤ -4.2
A49G U55A	-0.644
G50A U77G G81A A91U A97G A122U	≤ -4.2
A49C G50C C76U A91U A97U U111C G143C A150U	≤ -4.2
G50A C69U A121U A137C	≤ -4.2
A49U U101C C116U	-1.49
A49G G71A C93G	≤ -4.2
G50A U134A	-3.21
A49C U53A G88C G141C	≤ -4.2
A49G A60U	-1.62
A49C C93A	≤ -4.2
A49U G141A A147G	≤ -4.2
A49G C75G U77A U82C C93G C125U U134C U146C A147U	≤ -4.2
G50A A60U C96U U127A	-3.79
G50A C54U A91U C93U A107C C108A C132G A138U U148G	≤ -4.2
G50A C96U	-1.47

Variant	polymerase ribozyme fitness (log ratio)
G50A C96A	-2.68
G50A C96G	-1.55
A49C U109G G152U	-4.18
G50C A64C U82G C87G A106U A122C	≤ -4.2
G50A U56A	-1.5
G50A U56C	-1.2
G50A C72U A98C C99A	≤ -4.2
G50A U82C	-0.783
G50A G59A G133U	≤ -4.2
G50C C54U C85U C125U	-4.17
G50C A64U C93G U111G C116U G143U	≤ -4.2
G50A U55A C87G C103U C116G	≤ -4.2
A49C G84C	≤ -4.2
A49C G81U G84U C125G G141C A150U	≤ -4.2
G50C C69A C75U	≤ -4.2
A49C C79U U151G	≤ -4.2
G50A C51U U55A C76A C105U C108G	≤ -4.2
A49C C87U	-4.01
G50C A52C G58C	≤ -4.2
A49G G81C A91G A98U	-2.95
A49U U56G G81A G94A U146G	≤ -4.2
A49C U61G C99G G124A	≤ -4.2
A49U C54G C72A U82G A110U	≤ -4.2
A49G U101C C114G U134C	-3.89

Variant	polymerase ribozyme fitness (log ratio)
G50A C75U C76U C114G G152U	-4.02
G50A C57A C85A A91C A98C A121U G128U U135G A142U G143A	≤ -4.2
G50A A52U U78C C116A C149G	≤ -4.2
G50A C54U C85U C93U G94U G117A	-3.95
A49G G84U U145G	-3.09
A49U A97U A106G C116U	-2.93
G50A G68C U77C U82G G92C	≤ -4.2
G50A G59C U90G	≤ -4.2
A49U A66G G80C G84U U102G	≤ -4.2
A49G G84A G152A	-2.8
A49G A52G G68U C69G G100C	≤ -4.2
G50C A52C U55A G86A	-3.95
A49U G58C A66G G80U C85A C87A C108G G128U C149U	≤ -4.2
A49G C85G C93U	≤ -4.2
G50C A64U G100U U111C G136C	≤ -4.2
A49C G68C C85G A115G A119G G141U A147C	≤ -4.2
A49U C57A G81A A98C U148G	≤ -4.2
G50A U78A G83A G100A A107C	≤ -4.2
A49G A142C	-1.59
A49G C76U A89C C96A	-2.23
G50A G59A U101G	-0.0298
A49C U61G G62A G81C	-4.13
A49G G94A U127C	-3.23
A49G A113U	-2.42

Variant	polymerase ribozyme fitness (log ratio)
A49U G50A G84A C95G U146C	-1.2
A49C U53A A106G	≤ -4.2
A49G G83U	-1.22
A49C G50C G67C C72G G84A C108A A142G A147U	≤ -4.2
A49U A52C	-0.692
G50C C63G G94C C103A C132U	-4.08
G50A G70A	-3.76
G50C A52C U56C C96U A107U	≤ -4.2
G50A C93U	-3.07
A49C U55A	≤ -4.2
A49U C54G U55A G59A A60G U90G A106U G124C	≤ -4.2
G50A C96U G141U	-0.125
A49G A60G C85U	-0.602
A49G C93G U102G A106G	≤ -4.2
G50A G83C U146G	-2.55
A49G G92C A115U	-3.24
G50A C76G C93G U102A U135G A150G	≤ -4.2
G50C C57A A66C C85G	≤ -4.2
A49U A73U C75A	≤ -4.2
A49C C96A	-3.04
A49C G143A	-4.14
A49G G58A	-0.296
G50C A52C G86U C87A	≤ -4.2
A49C C85U	-3.49

Variant	polymerase ribozyme fitness (log ratio)
G50C A73G G84A	-4.1
G50A U55A C95A	-1.86
A49C U56G G65U A73C C87A	≤ -4.2
A49C G59A A60G A106G	≤ -4.2
A49G C51U C95G A137G U144A	≤ -4.2
G50A U53A U56A C75U C116A U134G	≤ -4.2
A49C U56A G88U A122C C125U	≤ -4.2
A49C G50C A91U C96G	≤ -4.2
G50A C87U	-1.74
G50C C69A C79A U82G U90G A107G A120G C129G U139G C149G	≤ -4.2
A49U C93U	-1.38
A49C G68C G81C C93A G126A	≤ -4.2
G50A C95U C116U	-1.99
A49U G58C	-0.846
A49U C116G C149U	-4.18
A49C C103A	-3.96
A49C U101G G141U	-1.78
A49G A97G	-1.11
G50C A52C C105A C125A A142C U146A	≤ -4.2
G50A G94C C95G U144C	≤ -4.2
G50C A52C	-2.71
A49C U55A A66U C72A C85U	≤ -4.2
A49G G70A G140U	≤ -4.2
A49U G58A U102G A122U	-0.217

Variant	polymerase ribozyme fitness (log ratio)
G50A G71C U82G C85G	≤ -4.2
G50A C51U G74C U82C G140A U146G	≤ -4.2
A49C G88U C96G A115U U148G	≤ -4.2
A49U U56A C99G A147G	≤ -4.2
A49G U139A	-4.08
A49G C54A C118A	-3.25
A49G C96U	-0.233
A49G C96G	-1.61
G50A A89U C99U	-2.94
A49C G94C U104G	≤ -4.2
A49C G71C U101G A137U A150U	≤ -4.2
G50C C57G U77A G81A G86C C96A G143A	≤ -4.2
A49U U56G C85U G86U U102C	≤ -4.2
A49U G50C G65C A97U U101G C129G G143U	≤ -4.2
A49C G92U U127C	≤ -4.2
A49U G80A	-3.76
A49C G81A G112A C114U G128A G133A	≤ -4.2
G50A C103U	-1.49
G50A C51U U55A G84A C87A C93A C108U G140C U146C	≤ -4.2
G50A A142C	-3.12
G50A U53C U56A A91U G94C A142C	≤ -4.2
A49U U53A A64G G84U U90C C96A A97G G124U G140A	≤ -4.2
G50A C57U C85U G128A	≤ -4.2
